Data taken from patent publication US20140274782A1, “AFFINITY REAGENTS AND METHODS FOR DETECTION, PURIFICATION, AND PROTEOMIC ANALYSIS OF METHYLATED PROTEINS” (The Board of Trustees of the Leland Stanford Junior …, priority 2013, published 2014).

T1: G9a and GLP (Homo sapiens, UniProt Q96KQ7+Q9H9B1)
T1 sequence (Q96KQ7 2-1210 limits assumed): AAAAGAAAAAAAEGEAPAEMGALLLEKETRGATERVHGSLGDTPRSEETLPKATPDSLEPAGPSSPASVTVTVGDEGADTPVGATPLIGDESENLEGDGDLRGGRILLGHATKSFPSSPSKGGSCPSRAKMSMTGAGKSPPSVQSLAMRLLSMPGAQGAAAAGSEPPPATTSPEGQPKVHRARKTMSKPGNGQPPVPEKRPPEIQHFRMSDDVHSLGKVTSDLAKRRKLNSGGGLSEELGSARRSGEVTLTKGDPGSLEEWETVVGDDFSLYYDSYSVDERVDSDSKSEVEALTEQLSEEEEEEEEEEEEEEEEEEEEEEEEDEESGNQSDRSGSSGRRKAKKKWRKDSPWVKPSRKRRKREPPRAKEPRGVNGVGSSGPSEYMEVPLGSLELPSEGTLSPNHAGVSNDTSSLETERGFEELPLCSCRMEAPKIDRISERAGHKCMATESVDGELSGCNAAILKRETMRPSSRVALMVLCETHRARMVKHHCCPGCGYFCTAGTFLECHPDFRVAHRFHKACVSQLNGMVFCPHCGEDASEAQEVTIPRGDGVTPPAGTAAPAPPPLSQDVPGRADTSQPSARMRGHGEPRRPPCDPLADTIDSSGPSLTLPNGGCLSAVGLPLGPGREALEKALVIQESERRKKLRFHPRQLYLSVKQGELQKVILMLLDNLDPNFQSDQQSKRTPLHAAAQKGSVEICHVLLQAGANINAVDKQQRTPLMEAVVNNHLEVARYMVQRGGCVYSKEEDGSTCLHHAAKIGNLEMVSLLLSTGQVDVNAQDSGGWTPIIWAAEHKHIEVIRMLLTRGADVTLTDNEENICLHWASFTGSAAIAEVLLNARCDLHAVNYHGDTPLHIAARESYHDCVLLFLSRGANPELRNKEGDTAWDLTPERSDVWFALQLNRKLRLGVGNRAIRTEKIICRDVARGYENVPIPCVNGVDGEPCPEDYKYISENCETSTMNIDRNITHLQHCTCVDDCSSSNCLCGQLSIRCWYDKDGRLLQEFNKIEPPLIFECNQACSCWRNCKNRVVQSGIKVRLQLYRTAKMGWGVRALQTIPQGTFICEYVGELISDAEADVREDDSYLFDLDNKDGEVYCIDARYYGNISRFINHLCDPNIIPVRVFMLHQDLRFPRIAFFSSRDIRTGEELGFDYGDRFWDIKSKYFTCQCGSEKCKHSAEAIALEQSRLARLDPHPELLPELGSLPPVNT
T1 sequence (Q9H9B1 2-1298 limits assumed): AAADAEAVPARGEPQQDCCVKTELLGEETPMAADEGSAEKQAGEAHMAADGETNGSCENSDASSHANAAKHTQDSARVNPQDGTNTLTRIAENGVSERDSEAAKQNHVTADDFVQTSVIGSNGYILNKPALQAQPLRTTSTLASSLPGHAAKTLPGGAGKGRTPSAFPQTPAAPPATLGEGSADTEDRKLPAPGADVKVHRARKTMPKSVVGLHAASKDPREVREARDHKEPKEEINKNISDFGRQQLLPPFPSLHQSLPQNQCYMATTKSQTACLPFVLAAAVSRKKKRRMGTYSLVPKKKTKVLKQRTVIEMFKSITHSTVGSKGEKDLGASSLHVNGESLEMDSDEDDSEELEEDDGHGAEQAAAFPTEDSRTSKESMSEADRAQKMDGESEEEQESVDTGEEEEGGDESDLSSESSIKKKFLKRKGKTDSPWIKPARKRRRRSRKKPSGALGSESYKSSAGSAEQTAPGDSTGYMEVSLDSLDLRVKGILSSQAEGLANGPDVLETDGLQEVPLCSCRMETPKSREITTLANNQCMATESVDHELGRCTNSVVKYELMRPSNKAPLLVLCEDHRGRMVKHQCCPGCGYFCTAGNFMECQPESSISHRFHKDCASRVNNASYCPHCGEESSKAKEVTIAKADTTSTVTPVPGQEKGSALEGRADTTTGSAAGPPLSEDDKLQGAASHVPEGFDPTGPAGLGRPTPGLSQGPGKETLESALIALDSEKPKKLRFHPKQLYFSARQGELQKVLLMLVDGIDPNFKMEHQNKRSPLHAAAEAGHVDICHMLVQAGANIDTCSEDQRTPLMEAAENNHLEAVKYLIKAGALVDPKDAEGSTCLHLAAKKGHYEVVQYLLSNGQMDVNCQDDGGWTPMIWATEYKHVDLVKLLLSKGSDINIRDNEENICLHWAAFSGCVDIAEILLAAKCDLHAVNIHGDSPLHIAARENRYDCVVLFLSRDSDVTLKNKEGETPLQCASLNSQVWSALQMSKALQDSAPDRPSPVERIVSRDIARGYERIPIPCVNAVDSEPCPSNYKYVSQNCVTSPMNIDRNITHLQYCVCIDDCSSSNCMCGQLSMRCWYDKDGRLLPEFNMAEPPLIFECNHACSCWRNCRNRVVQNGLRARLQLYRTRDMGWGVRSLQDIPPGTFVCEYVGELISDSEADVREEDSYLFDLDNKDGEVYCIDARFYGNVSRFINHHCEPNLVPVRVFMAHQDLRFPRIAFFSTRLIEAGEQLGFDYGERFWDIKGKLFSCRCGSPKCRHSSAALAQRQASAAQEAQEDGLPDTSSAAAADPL


Key:
3×MBT domain of L3MBTL1 = assay: Triple SILAC pull-down, 3xMBT/3xMBTD355N ratio (cytoplasmic, nuclear and chromatin fractions of 293T cells); type: binding, human; conditions: SILAC ratio, pull-down 3xMBT vs 3xMBTD355N; for 3xMBT/D355N UNC Heavy: experiment with UNC0638 in heavy SILAC media; for 3xMBT/D355N UNC Light: experiment with UNC0638 in light SILAC media;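 on all read-outs here: proteins quantified with MaxQuant, requiring at least two unique peptides and quantification in both label directions, normalized to the mean of proteins from a digested loading control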
G9a and GLP = biological target: T1, G9a and GLP; assay: Triple SILAC pull-down after UNC0638 treatment of 293T cells, DMSO/UNC0638 ratio of protein captured by 3×MBT; type: cell-based; design: cells were treated for 24 hours with UNC0638 at 2.5 μM or DMSO vehicle control; endogenous in cells; host or cells: HEK 293T; conditions: for Relative to UNC0638 UNC Heavy / Relative to UNC0638 UNC Light: SILAC ratio DMSO/UNC0638 of protein pulled down with 3xMBT; for Relative to UNC0638 UNC Heavy: UNC0638 in heavy SILAC media; for Relative to UNC0638 UNC Light: UNC0638 in light SILAC media; for Relative to UNC0638 Average: average of UNC Light and UNC Heavy experiments;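 on all read-outs here: mass spectrometry (Q-Exactive) SILAC quantitation, DMSO/UNC0638 ratio computed after subtracting 3×MBTD355N mutant pull-down background, only proteins with at least twofold 3×MBT over mutant signal considered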
Experimental: For UNC0638 treatments cells were treated for 24 hours with UNC0638 at 2.5 μM or DMSO vehicle control. One experiment treated cells in light media with UNC0638, the other treated cells in heavy media. Both experiments included cells in medium media treated with DMSO for negative control pull-down with 3×MBTD355N.
UNC0638 treatment experiments used a Q-Exactive mass spectrometer (ThermoFisher Scientific). A 25 cm HPLC column with 3 μm Reliasil (Orochem) was used to separate peptides over a 4 hour gradient from 0 to 75% acetonitrile. Ions were generated using a custom nanospray source flowing at 250 nL/minute. Mass spectrometry settings were 70,000 MS1 resolution, data dependent selection of up to 20 precursor ions per cycle, dynamic exclusion of 30 seconds and isolation window of 2 m/z.
For UNC0638 experiments the treated vs. untreated ratio was determined by subtracting the value from 3×MBTD355N prior to dividing values from the light and heavy channels. Only proteins showing a two-fold signal to background ratio (3×MBT/3×MBTD355N) were evaluated as potential G9a/GLP substrates.

| Relative to UNC0638 UNC Heavy (G9a and GLP) [log base 2] | Relative to UNC0638 UNC Light (G9a and GLP) [log base 2] | Relative to UNC0638 Average (G9a and GLP) [log base 2] | Molecule | 3xMBT/D355N UNC Heavy (3×MBT domain of L3MBTL1) [log base 2] | 3xMBT/D355N UNC Light (3×MBT domain of L3MBTL1) [log base 2] |
| --- | --- | --- | --- | --- | --- |
| 0.37 | 0.03 | 0.20 | CRKL (protein, UniProt P46109 1-303, looked up) Crk-like protein: MSSARFDSSDRSAWYMGPVSRQEAQTRLQGQRHGMFLVRDSSTCPGDYVLSVSENSRVSHYIINSLPNRRFKIGDQEFDHLPALLEFYKIHYLDTTTLIEPAPRYPSPPMGSVSAPNLPTAEDNLEYVRTLYDFPGNDAEDLPFKKGEILVIIEKPEEQWWSARNKDGRVGMIPVPYVEKLVRSSPHGKHGNRNSNSYGIPEPAHAYAQPQTTTPLPAVSGSPGAAITPLPSTQNGPVFAKAIQKRVPCAYDKTALALEVGDIVKVTRMNINGQWEGEVNGRKGLFPFTHVKIFDPQNPDENE | 1.16 | 1.59 |
| 0.31 | 0.12 | 0.21 | ATXN2L (protein, UniProt Q8WWM7 1-1075, looked up) Ataxin-2-like protein: MLKPQPLQQPSQPQQPPPTQQAVARRPPGGTSPPNGGLPGPLATSAAPPGPPAAASPCLGPVAAAGSGLRRGAEGILAPQPPPPQQHQERPGAAAIGSARGQSTGKGPPQSPVFEGVYNNSRMLHFLTAVVGSTCDVKVKNGTTYEGIFKTLSSKFELAVDAVHRKASEPAGGPRREDIVDTMVFKPSDVMLVHFRNVDFNYATKDKFTDSAIAMNSKVNGEHKEKVLQRWEGGDSNSDDYDLESDMSNGWDPNEMFKFNEENYGVKTTYDSSLSSYTVPLEKDNSEEFRQRELRAAQLAREIESSPQYRLRIAMENDDGRTEEEKHSAVQRQGSGRESPSLASREGKYIPLPQRVREGPRGGVRCSSSRGGRPGLSSLPPRGPHHLDNSSPGPGSEARGINGGPSRMSPKAQRPLRGAKTLSSPSNRPSGETSVPPPPAVGRMYPPRSPKSAAPAPISASCPEPPIGSAVPTSSASIPVTSSVSDPGVGSISPASPKISLAPTDVKELSTKEPGRTLEPQELARIAGKVPGLQNEQKRFQLEELRKFGAQFKLQPSSSPENSLDPFPPRILKEEPKGKEKEVDGLLTSEPMGSPVSSKTESVSDKEDKPPLAPSGGTEGPEQPPPPCPSQTGSPPVGLIKGEDKDEGPVAEQVKKSTLNPNAKEFNPTKPLLSVNKSTSTPTSPGPRTHSTPSIPVLTAGQSGLYSPQYISYIPQIHMGPAVQAPQMYPYPVSNSVPGQQGKYRGAKGSLPPQRSDQHQPASAPPMMQAAAAAGPPLVAATPYSSYIPYNPQQFPGQPAMMQPMAHYPSQPVFAPMLQSNPRMLTSGSHPQAIVSSSTPQYPSAEQPTPQALYATVHQSYPHHATQLHAHQPQPATTPTGSQPQSQHAAPSPVQHQAGQAPHLGSGQPQQNLYHPGALTGTPPSLPPGPSAQSPQSSFPQPAAVYAIHHQQLPHGFTNMAHVTQAHVQTGITAAPPPHPGAPHPPQVMLLHPPQSHGGPPQGAVPQSGVPALSASTPSPYPYIGHPQGEQPGQAPGFPGGADDRIREFSLAGGIWHGRAEGLQVGQDARVLGGE | 2.64 | 2.66 |

The next lines start with the molecule.

| Molecule | Relative to UNC0638 UNC Heavy (G9a and GLP) [log base 2] | Relative to UNC0638 UNC Light (G9a and GLP) [log base 2] | Relative to UNC0638 Average (G9a and GLP) [log base 2] | 3xMBT/D355N UNC Heavy (3×MBT domain of L3MBTL1) [log base 2] | 3xMBT/D355N UNC Light (3×MBT domain of L3MBTL1) [log base 2] |
| --- | --- | --- | --- | --- | --- |
| SEC23B (protein, UniProt Q15437 2-767, looked up) Protein transport protein …: ATYLEFIQQNEERDGVRFSWNVWPSSRLEATRMVVPLACLLTPLKERPDLPPVQYEPVLCSRPTCKAVLNPLCQVDYRAKLWACNFCFQRNQFPPAYGGISEVNQPAELMPQFSTIEYVIQRGAQSPLIFLYVVDTCLEEDDLQALKESLQMSLSLLPPDALVGLITFGRMVQVHELSCEGISKSYVFRGTKDLTAKQIQDMLGLTKPAMPMQQARPAQPQEHPFASSRFLQPVHKIDMNLTDLLGELQRDPWPVTQGKRPLRSTGVALSIAVGLLEGTFPNTGARIMLFTGGPPTQGPGMVVGDELKIPIRSWHDIEKDNARFMKKATKHYEMLANRTAANGHCIDIYACALDQTGLLEMKCCANLTGGYMVMGDSFNTSLFKQTFQRIFTKDFNGDFRMAFGATLDVKTSRELKIAGAIGPCVSLNVKGPCVSENELGVGGTSQWKICGLDPTSTLGIYFEVVNQHNTPIPQGGRGAIQFVTHYQHSSTQRRIRVTTIARNWADVQSQLRHIEAAFDQEAAAVLMARLGVFRAESEEGPDVLRWLDRQLIRLCQKFGQYNKEDPTSFRLSDSFSLYPQFMFHLRRSPFLQVFNNSPDESSYYRHHFARQDLTQSLIMIQPILYSYSFHGPPEPVLLDSSSILADRILLMDTFFQIVIYLGETIAQWRKAGYQDMPEYENFKHLLQAPLDDAQEILQARFPMPRYINTEHGGSQARFLLSKVNPSQTHNNLYAWGQETGAPILTDDVSLQVFMDHLKKLAVSSAC | 0.17 | 0.24 | 0.21 | 3.24 | 3.16 |
| DDX5 (protein, UniProt P17844 1-614, looked up) Probable ATP-dependent RNA …: MSGYSSDRDRGRDRGFGAPRFGGSRAGPLSGKKFGNPGEKLVKKKWNLDELPKFEKNFYQEHPDLARRTAQEVETYRRSKEITVRGHNCPKPVLNFYEANFPANVMDVIARQNFTEPTAIQAQGWPVALSGLDMVGVAQTGSGKTLSYLLPAIVHINHQPFLERGDGPICLVLAPTRELAQQVQQVAAEYCRACRLKSTCIYGGAPKGPQIRDLERGVEICIATPGRLIDFLECGKTNLRRTTYLVLDEADRMLDMGFEPQIRKIVDQIRPDRQTLMWSATWPKEVRQLAEDFLKDYIHINIGALELSANHNILQIVDVCHDVEKDEKLIRLMEEIMSEKENKTIVFVETKRRCDELTRKMRRDGWPAMGIHGDKSQQERDWVLNEFKHGKAPILIATDVASRGLDVEDVKFVINYDYPNSSEDYIHRIGRTARSTKTGTAYTFFTPNNIKQVSDLISVLREANQAINPKLLQLVEDRGSGRSRGRGGMKDDRRDRYSAGKRGGFNTFRDRENYDRGYSSLLKRDFGAKTQNGVYSAANYTNGSFGSNFVSAGIQTSFRTGNPTGTYQNGYDSTQQYGSNVPNMHNGMNQQAYAYPATAAAPMIGYPMPTGYSQ | 0.31 | 0.10 | 0.20 | 3.00 | 2.92 |
